Columns and labels:
20A11-G1m/VK2-28-k0MT = target: T1, 20A11-G1m/VK2-28-k0MT; test: BLI (Octet), in the same way as in Example 3
T1 construct: IgG antibody-like molecule

20A11hu-G1m/VK2-28-k0MT = target: T2, 20A11hu-G1m/VK2-28-k0MT (Homo sapiens (Human), UniProt P0DOX5 2-447 = IgG part); test: BLI (Octet), in the same way as in Example 3, 30 C or 25 C
T2 construct: IgG antibody-like molecule

IL6R90-G1m/lamL [1] = target: T3, IL6R90-G1m/lamL (Homo sapiens (Human), UniProt P0DOY2 1-106); test: BLI (Octet HTX), molecule captured on Protein A biosensor, hsIL-6R as analyte, 30 C
T3 construct: IgG antibody-like molecule lacking VL
Description: (§1) The hsIL-6R binding evaluation of each molecule was conducted using Octet HTX (Pall ForteBio Corp.). Specifically, each molecule was bound to Biosensor/Protein A (ProA) (Pall ForteBio Corp., 18-5013), and hsIL-6R was allowed to act thereon, followed by binding evaluation at 30° C.

IL6R90-G1m/VK2-28-k0MT = target: T4, IL6R90-G1m/VK2-28-k0MT; test: as above
T4 construct: IgG antibody-like molecule
Description: as §1

human CD3ed-Fc = target: T5, human CD3ed-Fc (human); test: phage display: panning on biotin-labeled human CD3ed-Fc and/or phage ELISA
T5 construct: Biotinylated in culture with BirA; The heterodimer fraction was purified; also called biotin-labeled protein containing human CD3 epsilon and human CD3 delta linked to a human antibody constant region; CD3 epsilon-delta heterodimer fused with the antibody constant region
T5 chain 1: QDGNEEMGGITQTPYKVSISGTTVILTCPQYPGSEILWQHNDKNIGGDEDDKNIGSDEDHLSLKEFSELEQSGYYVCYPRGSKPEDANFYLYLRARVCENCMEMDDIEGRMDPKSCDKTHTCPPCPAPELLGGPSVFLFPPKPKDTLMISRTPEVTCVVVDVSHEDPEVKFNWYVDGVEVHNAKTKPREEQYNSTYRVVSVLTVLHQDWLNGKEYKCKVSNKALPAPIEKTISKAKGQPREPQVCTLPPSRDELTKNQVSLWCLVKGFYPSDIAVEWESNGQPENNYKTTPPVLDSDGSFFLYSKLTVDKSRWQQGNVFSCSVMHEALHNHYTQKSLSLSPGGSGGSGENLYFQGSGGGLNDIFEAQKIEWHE
T5 chain 2: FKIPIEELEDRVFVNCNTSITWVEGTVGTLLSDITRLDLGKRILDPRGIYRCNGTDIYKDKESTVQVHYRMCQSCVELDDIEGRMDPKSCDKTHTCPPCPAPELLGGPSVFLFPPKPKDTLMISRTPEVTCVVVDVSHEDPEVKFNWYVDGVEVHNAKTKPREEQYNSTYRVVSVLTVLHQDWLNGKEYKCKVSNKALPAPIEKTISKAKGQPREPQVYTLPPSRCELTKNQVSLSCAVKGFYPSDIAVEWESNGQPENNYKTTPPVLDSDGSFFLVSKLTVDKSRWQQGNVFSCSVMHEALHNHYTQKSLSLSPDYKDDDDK

IL6R90-G1m/lamL [2] = target: T3, IL6R90-G1m/lamL; test: BLI (Octet HTX), hsIL-6R-BAP1 on streptavidin sensor, molecule as analyte, 30 C

T2 sequence (P0DOX5 other isoform, or with tags, fused parts or gaps, chain 1 of 2): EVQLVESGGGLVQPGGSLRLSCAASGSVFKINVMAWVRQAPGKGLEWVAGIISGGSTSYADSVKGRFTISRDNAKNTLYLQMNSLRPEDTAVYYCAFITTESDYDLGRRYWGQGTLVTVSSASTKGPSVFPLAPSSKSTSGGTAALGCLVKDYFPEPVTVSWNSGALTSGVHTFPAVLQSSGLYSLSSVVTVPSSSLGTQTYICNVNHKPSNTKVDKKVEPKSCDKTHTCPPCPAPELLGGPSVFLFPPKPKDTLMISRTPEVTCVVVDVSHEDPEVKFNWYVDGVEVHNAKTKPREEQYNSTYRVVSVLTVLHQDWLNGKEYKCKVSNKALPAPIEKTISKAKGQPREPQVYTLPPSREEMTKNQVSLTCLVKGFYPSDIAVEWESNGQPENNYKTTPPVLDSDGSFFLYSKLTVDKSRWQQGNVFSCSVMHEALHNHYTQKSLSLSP
T2 sequence (light, as listed by the source, chain 2 of 2): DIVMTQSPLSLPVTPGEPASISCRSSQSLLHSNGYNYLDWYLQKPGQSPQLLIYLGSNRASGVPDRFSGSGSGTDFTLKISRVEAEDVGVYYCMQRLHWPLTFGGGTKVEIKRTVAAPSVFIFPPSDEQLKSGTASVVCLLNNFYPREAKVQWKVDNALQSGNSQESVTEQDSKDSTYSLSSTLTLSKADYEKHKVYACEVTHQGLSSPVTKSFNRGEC
T4 sequence (light, as listed by the source, chain 2 of 2, other chains not shown): as the sequence (light, as listed by the source, chain 2 of 2) above
T1 sequence (heavy, as listed by the source, chain 1 of 2): as the sequence (P0DOX5 other isoform, or with tags, fused parts or gaps, chain 1 of 2) above, with V37Y, L45R, W47L counted along it
T1 sequence (light, as listed by the source, chain 2 of 2): as the sequence (light, as listed by the source, chain 2 of 2) above

B1: soluble human IL-6R (receptor)
chain: LAPRRCPAQEVARGVLTSLPGDSVTLTCPGVEPEDNATVHWVLRKPAAGSHPSRWAGMGRRLLLRSVQLHDSGNYSCYRAGRPAGTVHLLVDVPPEEPQLSCFRKSPLSNVVCEWGPRSTPSLTTKAVLLVRKFQNSPAEDFQEPCQYSQESQKFSCQLAVPEGDSSFYIVSMCVASSVGSKFSKTQTFQGCGILQPDPPANITVTAVARNPRWLSVTWQDPHSWNSSFYRLRFELRYRAERSKTFTTWMVKDLQHHCVIHDAWSGLRHVVQLRAQEEFGQGEWSEWSPEAMGTPWTESRSPPAENEVSTPMQALTTNKDDDNILFRDSANATSLPVQ
notes: Expressed in CHO cells and purified from the supernatant; also called hsIL-6R; recombinant human IL6R
Q: Does B1 bind (20A11-G1m/VK2-28-k0MT)?
A: binds

Q: Does B1 bind (20A11hu-G1m/VK2-28-k0MT)?
A: no binding

Q: Does B1 bind (IL6R90-G1m/lamL [1])?
A: binds

Q: Does B1 bind (IL6R90-G1m/VK2-28-k0MT)?
A: no binding

B2: bC3edL1R1N160H01 (VHH)
VHH: QVQLVESGGGLVQPGGSLRLSCAASGFTFNHCWMYWVRQAPGKGLEWVSVINTDGGSAYYADSVKGRFTISRDNAKNTLYLQMNSLKSEDTAVYYCARDWAPLVDYYYGMDYWGKGTLVTVSG
Q: Does B2 bind (human CD3ed-Fc)?
A: binds

B3: bC3edL1R1N161H01 (VHH)
VHH: QVQLVESGGGLVQPGGSLRLSCAASGFPFDNYVMSWVRQAPGKGLEWISAISWNGGSTYYAESMKGRFTISRDNAKSTLYLQMNSLKSEDTAVYYCAKEPRVYYSGSPDYWGQGTQVTVSG
Q: Does B3 bind (human CD3ed-Fc)?
A: binds

B4: bC3edL1R1N164H01 (VHH)
VHH: QVQLVESGGGLVQPGGSLRLSCAASGFTFDVYGMSWVRHSPGKGLEWVSTINWNGGSTYYAESMKGRFTISRDNAKNTVYLQMNSLKPEDTAVYYCAKFAPWDGDMEWGQGTQVTVSG
Q: Does B4 bind (human CD3ed-Fc)?
A: binds

B5: hsIL-6R-BAP1 (receptor)
chain: LAPRRCPAQEVARGVLTSLPGDSVTLTCPGVEPEDNATVHWVLRKPAAGSHPSRWAGMGRRLLLRSVQLHDSGNYSCYRAGRPAGTVHLLVDVPPEEPQLSCFRKSPLSNVVCEWGPRSTPSLTTKAVLLVRKFQNSPAEDFQEPCQYSQESQKFSCQLAVPEGDSSFYIVSMCVASSVGSKFSKTQTFQGCGILQPDPPANITVTAVARNPRWLSVTWQDPHSWNSSFYRLRFELRYRAERSKTFTTWMVKDLQHHCVIHDAWSGLRHVVQLRAQEEFGQGEWSEWSPEAMGTPWTESRSPPAENEVSTPMQALTTNKDDDNILFRDSANATSLPVQGGGGSGLNDIFEAQKIEWHE
modifications: biotin on the C-terminal AviTag sequence (BirA)
notes: also called hsIL-6R-Avitag; biotinylated soluble human IL6R
Q: Does B5 bind (IL6R90-G1m/lamL [2])?
A: binds

From patent US20240150476A1 (Chugai, published 2024)
